Measurements published in article PMC11187873.
Where “and” joins values, the source holds several entries; their conditions need not be identical. Equal entries are not always repeated.

Experiments:
[1] = biological target: PR(T26A)‐RT model precursor (HIV‐1 isolate BH10); assay: SEC-MALS
[2] = biological target: PR‐RT model precursor (His6‐SUMO‐Δp6*‐PR(D25A)‐RT) (HIV‐1 isolate BH10); assay: SEC-MALS

With “PR(T26A)‐RT model precursor (domain or fragment)” the stoichiometry N [1] was 2 and 4.

“PR‐RT model precursor (His6‐SUMO‐Δp6*‐PR(D25A)‐RT) (domain or fragment)” was tested, and the stoichiometry N [2] was 2 and 4.
